Drawing on US20230414780A1 (VECT HORUS, published 2023), this text covers Kd for 25 molecules.

Holding throughout (experiment): apparent Kd, flow cytometry, CHO cells
On the technique in general: A flow cytometer gives signals particle by particle.

The target of test [1] is T1, human transferrin receptor (hTfR) fused to EGFP, on CHO cells (human, UniProt P02786 1-760).
T1 construct: whole, on cells; also called human TfR; CHO-hTfR-EGFP; not shown: EGFP from pEGFP-C1 vector, fused to the N-terminal (intracellular) end of hTfR
The method, then: (§1) The binding properties of VHHs with affinity for the TfR from different species (i.e., human (h), mouse (m) and rhesus monkey (rh)) were tested using flow cytometry, and apparent affinities (Kd app) were determined. All experiments were performed in 96 well plates using 2×10⁵ cells/well, at 4° C. with shaking. CHO cell lines expressing the hTfR, mTfR or rhTfR fused to EGFP were saturated with PBS/BSA 2% solution during 30 min to avoid nonspecific binding, followed by incubation with purified VHHs at increasing concentrations for 1 hr. After one wash in PBS/BSA 2%, cells were incubated for 1 hr with an anti-6His tag antibody (mouse), washed twice with PBS/BSA 2%, and incubated for 1 hr with an Alexa647-conjugated anti-mouse secondary antibody. After two last washes in PBS/BSA 2%, cells were fixed by incubation for 15 min with PBS/PFA 2%, washed once with PBS and finally resuspended in PBS. Fluorescence levels were assessed using an Attune NxT flow cytometer (Thermo Fisher Scientific). Experimental data were fitted with GraphPad Prism® software using a nonlinear fit to determine the apparent Kd constants. […] Table 5 hereafter summarizes apparent Kd obtained for the tested VHHs.

For test [2], the target named is T2, mouse transferrin receptor (mTfR) fused to EGFP, on CHO cells (mouse, UniProt Q62351 1-763).
T2 construct: whole, on cells; also called mouse TfR; CHO-mTfR-EGFP; not shown: EGFP
The method, then: as §1

Test [3] has as its target T3, rhesus monkey transferrin receptor (rhTfR) fused to EGFP, on CHO cells (rhesus monkey).
T3 construct: whole, on cells; also called rhesus monkey TfR
The method, then:
as §1

T2 sequence (Q62351 whole entry, the tested form may be a part): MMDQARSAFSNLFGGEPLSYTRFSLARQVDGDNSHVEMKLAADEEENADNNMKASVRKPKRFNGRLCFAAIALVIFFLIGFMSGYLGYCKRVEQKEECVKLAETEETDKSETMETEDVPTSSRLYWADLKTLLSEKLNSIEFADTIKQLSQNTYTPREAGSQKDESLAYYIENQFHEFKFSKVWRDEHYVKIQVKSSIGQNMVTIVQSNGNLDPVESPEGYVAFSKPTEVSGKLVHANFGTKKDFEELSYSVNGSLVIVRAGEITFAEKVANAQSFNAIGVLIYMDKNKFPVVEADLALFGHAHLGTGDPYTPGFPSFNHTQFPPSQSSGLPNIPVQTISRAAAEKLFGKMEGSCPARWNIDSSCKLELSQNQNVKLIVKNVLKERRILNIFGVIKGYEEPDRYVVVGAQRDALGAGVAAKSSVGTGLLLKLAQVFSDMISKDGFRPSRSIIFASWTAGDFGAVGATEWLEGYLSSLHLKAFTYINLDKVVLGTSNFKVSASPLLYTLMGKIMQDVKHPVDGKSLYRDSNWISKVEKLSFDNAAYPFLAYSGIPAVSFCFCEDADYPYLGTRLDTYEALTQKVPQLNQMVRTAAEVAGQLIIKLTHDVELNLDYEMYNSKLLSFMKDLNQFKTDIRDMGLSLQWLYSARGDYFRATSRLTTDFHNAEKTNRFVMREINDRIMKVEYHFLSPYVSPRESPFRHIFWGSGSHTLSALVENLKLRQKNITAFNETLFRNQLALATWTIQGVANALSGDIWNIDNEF
T1 sequence (P02786 whole entry, the tested form may be a part): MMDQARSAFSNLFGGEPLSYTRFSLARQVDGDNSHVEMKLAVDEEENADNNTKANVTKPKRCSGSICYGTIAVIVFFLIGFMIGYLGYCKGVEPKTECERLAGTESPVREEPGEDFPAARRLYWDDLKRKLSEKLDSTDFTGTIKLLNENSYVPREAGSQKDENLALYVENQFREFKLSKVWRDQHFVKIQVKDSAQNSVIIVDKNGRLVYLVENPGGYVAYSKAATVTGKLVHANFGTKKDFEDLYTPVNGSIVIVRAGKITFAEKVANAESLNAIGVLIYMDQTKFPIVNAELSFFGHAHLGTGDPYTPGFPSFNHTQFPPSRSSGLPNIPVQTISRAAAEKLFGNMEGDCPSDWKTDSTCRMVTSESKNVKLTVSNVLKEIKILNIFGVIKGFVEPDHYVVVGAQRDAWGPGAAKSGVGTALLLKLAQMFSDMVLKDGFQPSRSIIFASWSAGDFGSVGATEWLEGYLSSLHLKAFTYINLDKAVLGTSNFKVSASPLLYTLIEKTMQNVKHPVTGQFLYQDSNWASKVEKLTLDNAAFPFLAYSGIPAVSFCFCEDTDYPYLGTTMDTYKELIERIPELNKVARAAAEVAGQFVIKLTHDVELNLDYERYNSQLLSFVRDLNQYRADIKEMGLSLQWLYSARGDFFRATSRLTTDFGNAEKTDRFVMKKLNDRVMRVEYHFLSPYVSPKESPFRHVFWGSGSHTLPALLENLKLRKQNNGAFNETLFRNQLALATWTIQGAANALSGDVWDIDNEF

B1: VHH A24 (C5^h5) (VHH)
VHH: EVQLVESGGGVVQPGGSLRLSCAASGTDFSINFIRWVRQAPGKGLEWVAGFTATGNTNYADSVKGRFTISRDNAKNTLYLQMNSLRPEDTAVYYCYMLDKWGQGTQVTVSS
Consider B1, for which the Kd in test [1] amounted to 0.193 µM.

B2: C5^h16 (VHH)
VHH: EVQLVESGGGLVQPGGSLRLSCAASGTDFSINFIRWYRQAPGKGLEFVAGFTATGNTNYADSVKGRFTISRDNSKNTLYLQMNSLRAEDTAVYYCYMLDKWGQGTLVTVSS
Consider B2, for which the values for the Kd in test [1], in test [2] and in test [3] were 0.0081 µM, 0.582 µM and 0.76 µM, respectively.

B3: C5^V20 (VHH)
VHH: EVQLVESGGGVVQPGGSLKLSCVASGHDFSINFIRWYRQAPGKQREFVAGFTATGNTNYADSMKGRFTISRDNTKNAVYLQIDSLKPEDTAVYYCYMLDKWGQGTQVTVSS
On to B3, for which the Kd was determined as 0.0025 µM in test [1], 0.125 µM in test [2] and 0.0061 µM in test [3].

B4: C5^h15 (VHH)
VHH: EVQLVESGGGVVQPGGSLRLSCVASGTDFSINFIRWVRQAPGKGLEWVAGFTATGNTNYADSVKGRFTISRDNTKNTLYLQMDSLRPEDTAVYYCYMLDKWGQGTQVTVSS
Take B4: the Kd stood at 1.09 µM in test [1] and 0.452 µM in test [2].

B5: C5^h12 (VHH)
VHH: EVQLVESGGGVVQPGGSLRLSCAASGTDFSINFIRWYRQAPGKGLEFVAGFTATGNTNYADSVKGRFTISRDNAKNTLYLQIDSLRPEDTAVYYCYMLDKWGQGTQVTVSS
In the case of B5, the Kd in test [1] came to 0.0043 µM; in test [2], 0.331 µM; in test [3], 0.361 µM.

B6: C5^V28 (VHH)
VHH: EVQLVESGGGVVQPGGSLKLSCVASGADFSINFIRWYRQAPGKQREFVAGFSATGNTNYADSMKGRFTISRDNTKNAVYLQIDSLKPEDTAVYYCYMLDKWGQGTQVTVSS
B6: the Kd in test [1] amounted to 0.0033 µM; in test [2], 0.16 µM; in test [3], 0.371 µM.

B7: C5^V21 (VHH)
VHH: EVQLVESGGGVVQPGGSLKLSCVASGTDFSINFIRWYRQAPGKQREFVAGWTATGNTNYADSMKGRFTISRDNTKNAVYLQIDSLKPEDTAVYYCYMLDKWGQGTQVTVSS
Turning to B7, the Kd in test [1] came to 0.0024 µM; in test [2], 0.12 µM; in test [3], 0.0082 µM.

B8: VHH A10 (C5^V10) (VHH)
VHH: EVQLVESGGGVVQPGGSLKLSCVASGTDFSLNFIRWYRQAPGKQREFVAGFTATGNTNYADSMKGRFTISRDNTKNAVYLQIDSLKPEDTAVYYCYMLDKWGQGTQVTVSS
Turning to B8, the Kd amounted to 0.0034 µM in test [1], 0.159 µM in test [2] and 0.0051 µM in test [3].

B9: C5^V24 (VHH)
VHH: EVQLVESGGGVVQPGGSLKLSCVASGTDFSINFIRWYRQAPGKQREFVAGFTATGNTNYADSMKGRFTISRDNTKNAVYLQIDSLKPEDTAVYYCWMLDKWGQGTQVTVSS
For the molecule B9, the Kd in test [1] stood at 0.0043 µM; in test [2] it was 0.218 µM; in test [3], 0.564 µM.

B10: C5^h13 (VHH)
VHH: EVQLVESGGGVVQPGGSLRLSCAASGTDFSINFIRWYRQAPGKGLEFVAGFTATGNTNYADSVKGRFTISRDNTKNTLYLQMNSLRPEDTAVYYCYMLDKWGQGTQVTVSS
Consider B10, for which the Kd came to 0.0083 µM in test [1], 0.554 µM in test [2] and 0.73 µM in test [3].

B11: C5^h26 (VHH)
VHH: EVQLVESGGGVVQPGGSLRLSCAASGTDFSINFIRWYRQAPGKGLEWVAGFTATGNTNYADSVKGRFTISRDNAKNTLYLQIDSLRPEDTAVYYCYMLDKWGQGTQVTVSS
As to B11, the Kd in test [1] is 0.004 µM; in test [2], 0.675 µM; in test [3], 0.656 µM.

B12: C5^V25 (VHH)
VHH: EVQLVESGGGVVQPGGSLKLSCVASGTDFSINFIRWYRQAPGKQREFVAGFTATGNTNYADSMKGRFTISRDNTKNAVYLQIDSLKPEDTAVYYCYLLDKWGQGTQVTVSS
In the case of B12, the Kd was 0.0045 µM in test [1], 0.136 µM in test [2] and 0.429 µM in test [3].

B13: C5^V23 (VHH)
VHH: EVQLVESGGGVVQPGGSLKLSCVASGTDFSINFIRWYRQAPGKQREFVAGFTATGNTNYADSMKGRFTISRDNTKNAVYLQIDSLKPEDTAVYYCHMLDKWGQGTQVTVSS
For the molecule B13, the Kd was determined as 0.0045 µM in test [1], 0.254 µM in test [2] and 0.353 µM in test [3].

B14: C5^V22 (VHH)
VHH: EVQLVESGGGVVQPGGSLKLSCVASGTDFSINFIRWYRQAPGKQREFVAGYTATGNTNYADSMKGRFTISRDNTKNAVYLQIDSLKPEDTAVYYCYMLDKWGQGTQVTVSS
B14: the Kd was 0.0027 µM in test [1], 0.131 µM in test [2] and 0.011 µM in test [3].

B15: VHH A14 (C5^V14) (VHH)
VHH: EVQLVESGGGVVQPGGSLKLSCVASGTDFSINFIRWYRQAPGKQREFVAGFTATGNSNYADSMKGRFTISRDNTKNAVYLQIDSLKPEDTAVYYCYMLDKWGQGTQVTVSS
Turning to B15, the Kd was determined as 0.0033 µM in test [1], 0.158 µM in test [2] and 0.0039 µM in test [3].

B16: C5^h8 (VHH)
VHH: EVQLVESGGGVVQPGGSLRLSCAASGTDFSINFIRWVRQAPGKGLEWVAGFTATGNTNYADSVKGRFTISRDNTKNTLYLQIDSLRPEDTAVYYCYMLDKWGQGTQVTVSS
Take B16: the Kd in test [1] is 0.987 µM; in test [2], 0.656 µM.

B17: C5^h11 (VHH)
VHH: EVQLVESGGGVVQPGGSLRLSCAASGTDFSINFIRWVRQAPGKGLEWVAGFTATGNTNYADSMKGRFTISRDNTKNTLYLQMNSLRPEDTAVYYCYMLDKWGQGTQVTVSS
Consider B17, for which the results for the Kd in test [1], in test [2] and in test [3] were 1.13 µM, 1.37 µM and 1.24 µM, respectively.

B18: VHH A21 (C5^h2) (VHH)
VHH: EVQLVESGGGVVQPGGSLRLSCAASGTDFSINFIRWVRQAPGKQREFVAGFTATGNTNYADSVKGRFTISRDNAKNTLYLQMNSLRPEDTAVYYCYMLDKWGQGTQVTVSS
As for B18, the Kd in test [1] was 0.267 µM; in test [2], 0.225 µM.

B19: C5^h17 (VHH)
VHH: EVQLVESGGGVVQPGGSLKLSCVASGTDFSINFIRWVRQAPGKGLEFVAGFTATGNTNYADSMKGRFTISRDNTKNALYLQIDSLRPEDTAVYYCYMLDKWGQGTQVTVSS
Turning to B19, the Kd in test [1] is 0.63 µM; in test [2] it was 0.898 µM.

B20: C5^h23 (VHH)
VHH: EVQLVESGGGVVQPGGSLRLSCAASGTDFSINFIRWVRQAPGKQREFVAGFTATGNTNYADSVKGRFTISRDNAKNTLYLQMNSLRPEDTAVYYCYMLDKWGQGTQVTVSS
For B20, the Kd in test [1] was determined as 0.594 µM; in test [2], 1.54 µM; in test [3], 2 µM.

B21: C5^h10 (VHH)
VHH: EVQLVESGGGVVQPGGSLKLSCAASGTDFSINFIRWVRQAPGKGLEWVAGFTATGNTNYADSVKGRFTISRDNTKNTLYLQINSLRPEDTAVYYCYMLDKWGQGTQVTVSS
For B21, the Kd amounted to 1.07 µM in test [1] and 0.845 µM in test [2].

B22: C5^h21 (VHH)
VHH: EVQLVESGGGVVQPGGSLRLSCAASGTDFSINFIRWYRQAPGKGLEFVAGFTATGNTNYADSVKGRFTISRDNAKNTLYLQMNSLKPEDTAVYYCYMLDKWGQGTQVTVSS
On to B22, for which the Kd in test [1] was 0.0088 µM; in test [2], 0.6 µM; in test [3] it was 1.01 µM.

B23: C5^h24 (VHH)
VHH: EVQLVESGGGVVQPGGSLRLSCAASGTDFSINFIRWYRQAPGKGLEFVAGFTATGNTNYADSMKGRFTISRDNAKNTLYLQMNSLRPEDTAVYYCYMLDKWGQGTQVTVSS
As to B23, the Kd in test [1] stood at 0.0041 µM; in test [2] it was 0.624 µM; in test [3] it was 0.641 µM.

B24: C5^h14 (VHH)
VHH: EVQLVESGGGVVQPGGSLRLSCAASGTDFSINFIRWVRQAPGKGLEWVAGFTATGNTNYADSVKGRFTISRDNTKNALYLQMNSLRPEDTAVYYCYMLDKWGQGTQVTVSS
Take B24: the Kd in test [1] was 1.1 µM; in test [2] it was 0.164 µM.

B25: C5^V26 (VHH)
VHH: EVQLVESGGGVVQPGGSLKLSCVASGTDFSINFIRWYRQAPGKQREFVAGFTATGNTNYADSMKGRFTISRDNTKNAVYLQIDSLKPEDTAVYYCYVLDKWGQGTQVTVSS
Turning to B25, the Kd in test [1] amounted to 0.0079 µM; in test [2], 0.211 µM; in test [3] it was 0.335 µM.
